Broadly, the Kd is the constant that tells how readily two partners part at equilibrium.

Our source for the Kd values is US20230002478A1.

Assay [1] has as its target SARS-CoV-2 S1-Fc (South Africa 178-08) (SARS-CoV-2), P0DTC2. The assay is described as follows: SPR. Particulars: remark: other sources report otherwise.
The target of assay [2] is SARS-CoV-2 S Trimer (SARS-CoV-2), P0DTC2. The assay can be described thus: SPR. To be noted: remark: other sources report otherwise.

B1: 6-63 (Fc fusion)
chain: EVQLVESGGGLVQPGGSLRLSCAASGQTFNMGWFRQAPGKEREFVAAIGSGGSTSYADSVKGRFTISADNSKNTAYLQMNSLKPEDTAVYYCWRLGNDYFDYWGQGTLVTVSS
Turning to B1, the figures for the Kd in assay [1] and in assay [2] were 26.8 nM and 0.68 nM, respectively.
